Reference: patent US20120028811, “DEVICE FOR RAPID IDENTIFICATION OF NUCLEIC ACIDS FOR BINDING TO SPECIFIC CHEMICAL TARGETS” (DONGGUK UNIVERSITY, published 2012)

Biological target: T1, TATA-binding protein (TBP) (UniProt P13393 P13393:1-240)
T1 sequence: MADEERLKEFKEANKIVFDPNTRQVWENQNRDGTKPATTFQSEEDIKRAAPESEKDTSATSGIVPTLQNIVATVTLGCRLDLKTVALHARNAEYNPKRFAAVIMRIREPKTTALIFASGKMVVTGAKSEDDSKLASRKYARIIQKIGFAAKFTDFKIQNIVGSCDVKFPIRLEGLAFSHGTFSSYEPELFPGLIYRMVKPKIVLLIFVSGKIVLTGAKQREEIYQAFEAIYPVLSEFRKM
Assay: fluorescence microscopy of TBP in sol-gel; binding buffer 25 mM Tris pH 8, 100 mM NaCl, 25 mM KCl, 10 mM MgCl2
Details: tags: His-tag, full length, expressed in E. coli BL21-DE3; label: 5'-Cy3 on top strand
Protocol: Sol-gels with TBP were enclosed with the PDMS lid. After encapsulation, the channels were washed extensively with the PBS buffer (binding buffer) by connecting one end of the main channel to a syringe pump (Pump 11, Harvard Apparatus, Holliston, Mass.). Following the pre-washing step, the silicate gel spot was blocked for 1 hour with 1× binding buffer that contained 25 mM Tris-Cl (pH 8), 100 mM NaCl, 25 mM KCl and 10 mM MgCl₂ with 5% skim milk. The blocking buffer works as a nonspecific competitor in the reaction mixture, which helps to achieve the selection of high-affinity molecules. […] After binding, the interaction of immobilized TBP proteins and Cy-3 labeled TATA DNA was monitored by fluorescence microscopy.
The Cy-3-labeled TATA DNA has a high affinity for TBP similar to that of the conventionally selected aptamers. […] The measured melting point of TATA DNA was 72° C. […] The fluorescence intensity of the sol-gel except for the negative sol-gel was detected under the fluorescent microscope (FIG. 6).

B1: TATA DNA (dsDNA)
DNA 1: GGGAATTCGGGCTATAAAAGGGGGATCCGG
DNA 2: CCGGATCCCCCTTTTATAGCCCGAATTCCC
Question: Does B1 bind?
Answer: Result: binds
